Measurements reported in article PMC6420652 (2019).

B1: AZIN with a C-terminal Clover (GFP) tag (natural protein)
chain: MKGFIDDANYSVGLLDEGTNLGNVIDNYVYEHTLTGKNAFFVGDLGKIVKKHSQWQNVVAQIKPFYTVKCNSAPAVLEILAALGTGFACSSKNEMALVQELGVPPENIIYISPCKQVSQIKYAAKVGVNILTCDNEIELKKIARNHPNAKVLLHIATEDNIGGEEGNMKFGTTLKNCRHLLECAKELDVQIIGVKFHVSSACKESQVYVHALSDARCVFDMAGEIGFTMNMLDIGGGFTGTEFQLEEVNHVISPLLDIYFPEGSGVKIISEPGSYYVSSAFTLAVNIIAKKVVENDKFPSGVEKTGSDEPAFMYYMNDGVYGSFASKLSEDLNTIPEVHKKYKEDEPLFTSSLWGPSCDELDQIVESCLLPELNVGDWLIFDNMGADSFHEPSAFNDFQRPAIYYMMSFSDWYEMQDAGITSDSMMKNFFFVPSCIQLSQEDSFSAEA
B2: Clover-AZIN (antizyme inhibitor with an N-terminal Clover tag) (natural protein)
chain: B1 chain
B3: antizyme-mRuby2 (antizyme with a C-terminal mRuby2 tag) (natural protein)
chain: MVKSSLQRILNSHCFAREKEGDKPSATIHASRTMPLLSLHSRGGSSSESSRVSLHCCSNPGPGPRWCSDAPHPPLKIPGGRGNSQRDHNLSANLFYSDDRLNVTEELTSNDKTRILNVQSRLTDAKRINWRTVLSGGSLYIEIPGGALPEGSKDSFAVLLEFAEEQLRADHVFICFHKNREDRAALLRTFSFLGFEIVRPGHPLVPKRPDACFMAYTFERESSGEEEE

What was measured:
Assay in all cases: FRET
[1] = biological target: B3
[2] = biological target: antizyme with an N-terminal mRuby2 tag (human, UniProt P54368 1-228)
Sequence of antizyme with an N-terminal mRuby2 tag (P54368 whole entry): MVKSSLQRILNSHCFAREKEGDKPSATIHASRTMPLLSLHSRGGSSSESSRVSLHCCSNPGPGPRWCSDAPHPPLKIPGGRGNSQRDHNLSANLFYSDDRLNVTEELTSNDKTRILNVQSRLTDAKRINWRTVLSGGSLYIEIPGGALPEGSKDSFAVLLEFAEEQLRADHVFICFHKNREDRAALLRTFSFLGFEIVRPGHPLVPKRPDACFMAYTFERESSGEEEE

Clover-AZIN A325N = Clover-AZIN A325N (human, UniProt O14977 1-448, A325N)

Row | Kd [1] [nM] | Kd [2] [nM] | Kd (Clover-AZIN A325N) [nM] | Binder
1 | 29 | 89 |  | B1
2 |  | 80 |  | B2
3 |  |  | 35.6 | B3
